Results taken from patent US20210107969A1 (Johns Hopkins, published 2021).

Tests used:
[1] = molecular target: T1, biotinylated huPD-L1 (human, UniProt Q9NZQ7 19-238, limits assumed, biotinylated (site not stated)); assay: ELISA, antibody coated, biotinylated huPD-L1 detected by avidin-HRP
T1 construct: it is treated here as the same reagent; also called biotinylated PD-L1

[2] = molecular target: T2, human TGF-β1 (human, UniProt P01137 279-390, biotinylated in the FIG. 8C ELISA; unlabelled rhTGF-β1 in FIG. 9B/9C); assay: ELISA, protein coated, biotinylated huTGFb1 detected by avidin-HRP
T2 construct: also called biotinylated huTGFb1; rhTGF-β1
T2 sequence (P01137 279-390 limits assumed): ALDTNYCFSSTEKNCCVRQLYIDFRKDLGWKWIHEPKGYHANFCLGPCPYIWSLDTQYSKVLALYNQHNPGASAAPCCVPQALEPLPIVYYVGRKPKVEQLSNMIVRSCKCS

T1 sequence (Q9NZQ7 19-238 limits assumed): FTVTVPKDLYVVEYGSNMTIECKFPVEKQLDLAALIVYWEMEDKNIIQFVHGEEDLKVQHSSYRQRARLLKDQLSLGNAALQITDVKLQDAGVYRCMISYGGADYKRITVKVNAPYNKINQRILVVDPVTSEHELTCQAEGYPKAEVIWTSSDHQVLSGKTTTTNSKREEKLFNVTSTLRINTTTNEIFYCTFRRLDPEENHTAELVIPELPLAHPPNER

Row | Binder | binding result [1] | binding result [2]
1 | anti-PD1 (nivolumab) (antibody, human IgG4 S228P, kappa, V domains shown, Negative control in the PD-L1 ELISA) VH: QVQLVESGGGVVQPGRSLRLDCKASGITFSNSGMHWVRQAPGKGLEWVAVIWYDGSKRYYADSVKGRFTISRDNSKNTLFLQMNSLRAEDTAVYYCATNDDYWGQGTLVTVSS VL: EIVLTQSPATLSLSPGERATLSCRASQSVSSYLAWYQQKPGQAPRLLIYDASNRATGIPARFSGSGSGTDFTLTISSLEPEDFAVYYCQQSSNWPRTFGQGTKVEIKR | no binding | –
2 | anti-VEGF (bevacizumab) (antibody, human IgG1, kappa, V domains shown) VH: EVQLVESGGGLVQPGGSLRLSCAASGYTFTNYGMNWVRQAPGKGLEWVGWINTYTGEPTYAADFKRRFTFSLDTSKSTAYLQMNSLRAEDTAVYYCAKYPHYYGSSHWYFDVWGQGTLVTVSS VL: DIQMTQSPSSLSASVGDRVTITCSASQDISNYLNWYQQKPGKAPKVLIYFTSSLHSGVPSRFSGSGSGTDFTLTISSLQPEDFATYYCQQYSTVPWTFGQGTKVEIKR | – | no binding
